Several values for one entry are separate records, joined by “and”; a condition that tells them apart may be missing. Equal values may be shown once. Read-outs that look alike come from different tables or passages of the source. One block for each molecule: values may come before it. Ends that are not written are not given here.
Key:
human FPRL1 = biological target: T1, human FPRL1 (Homo sapiens, UniProt P25090); experiment: Calcium flux in FPRL1-L1.2 transfectants; format: cell-based; details: for Designation and FPRL1 Activity: qualitative rating high, moderate, low, see Example 9; for Notes: activity: qualitative rating, Table 6; for calcium release / mobilization: FPRL1 expressing L1.2 cells
T1 construct: Full length cDNA encoding FPRL1 was cloned, using the polymerase chain reaction (PCR), from genomic DNA isolated from undifferentiated HL-60 cells; expressed in transfected cells; linearized FPRL1/pcDNA3.1, electroporation
T1 sequence (P25090 1-351): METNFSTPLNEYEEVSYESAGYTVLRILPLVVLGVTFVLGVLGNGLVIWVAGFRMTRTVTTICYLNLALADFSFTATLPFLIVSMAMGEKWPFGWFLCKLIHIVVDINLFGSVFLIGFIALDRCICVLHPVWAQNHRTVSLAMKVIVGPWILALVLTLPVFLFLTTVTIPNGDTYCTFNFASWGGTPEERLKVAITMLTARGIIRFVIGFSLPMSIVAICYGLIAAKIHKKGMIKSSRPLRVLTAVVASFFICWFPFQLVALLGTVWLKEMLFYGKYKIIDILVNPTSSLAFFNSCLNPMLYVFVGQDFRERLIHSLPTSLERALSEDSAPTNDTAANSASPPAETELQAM
Protocol: (§1) Ca^2+ mobilization responses were performed using the intracellular ratiometric fluorescent dye, lndo-1. Cells were loaded with Indo-1/AM (3 μM; Molecular Probes, Eugene, Oreg.) in culture medium (45 min, 20° C., 10^7 cells/ml). After dye loading, cells were washed once with 10 ml PBS) and resuspended at 10^6 cell/ml in HBSS containing 1% FBS. Cytosolic [Ca^2+] release was determined using excitation at 350 nm using a Photon Technology International fluorimeter (excitation at 350 nm, ratioed dual emission at 400 and 490 nm).
The functional activities of CKβ8-1 (25-116) were investigated in human FPRL1-L1.2 transfectants and in native L1.2 cells. Stable expression of formyl peptide-like receptor 1 (FPRL1) in L.1.2 cell was obtained as follows. Full length cDNA encoding FPRL1 was cloned, using the polymerase chain reaction (PCR), from genomic DNA isolated from undifferentiated HL-60 cells. […] Twenty micrograms of the FPRL1/pcDNA3.1 construct were linearized by digestion with Bsm1 (New England Biolabs, Beverly, Mass.) and used to transfect the murine B cell line L1.2 as follows. Twenty five million cells were washed twice and resuspended in 0.8 ml of PBS. The cells were incubated for 10 min at room temperature with the linearized FPRL/pcDNA3.1 construct DNA and transferred to a 0.4-cm cuvette, and a single electroporation pulse was applied at 250 V, 960 μF. Electroporated cells were incubated for 10 min at room temperature and transferred to culture at 37° C. in RPMI supplemented with 10% FCS. Geneticin (G418) was added to a final concentration of 800 μg/ml 48 h posttransfection and the cells plated into 96-well plates at 25,000 cells/well. After 2-3 weeks under drug selection, stable geneticin-resistant FPLR1 expressing cells were assessed for their ability to mobilize Ca^++ in response to SHAAGtide or CKbeta 8-1 at concentrations of 1 to 1000 nM.
A calcium flux test was performed on these transfectants using the method described in Example 1.
Stable expression of human FPRL1 in L1.2 cells was obtained as in Example 6. Calcium flux tests were conducted on the transfectants using the method described in Example 1. Chemokines (CKβ8(1-99), CKβ8(25-99), CKβ8-1(1-116) and CKβ8-1(25-116), were prepared as in Example 1. W peptides 1 and 2 were obtained as in Example 6. In addition, and the following SHAAGtide sequences and truncated variants (prepared as in Example 8) were tested:
All ligands were added in a dose response manner and the peak calcium flux response determined.

immature Dendritic Cells = experiment: Calcium mobilization, immature dendritic cells; format: cell-based, human
Protocol: Human recombinant CKβ8-1(25-116) chemokine was obtained from R&D Systems (Minneapolis, Minn.). The peptide SHAAGtides SEQ ID NO:1 and SEQ ID NO:6 and a control protein (the reverse sequence of SEQ ID NO:1) were synthesized and HPLC-purified using routine techniques as described in Sambrook et al., 1989, and Ausubel et al., 1999.
Immature DCs were derived by culturing CD14+ monocytes in the presence of GM-CSF and IL4. Briefly, monocytes were cultured in a T-175 flask at 10^6 cells/ml in RPMI/10% FCS. Recombinant human GM-CSF and IL4 were added on day 0, 2, 4 and 6 to a final concentration of 1000 u/ml and 500 u/ml, respectively. Cells were harvested on day 7 as immature DCs and characterized for surface protein expression by FACS analysis. DC maturation was carried out by culturing day 6 immature DCs in macrophage-conditioned medium (MCM). Briefly, day 6 immature DCs were harvested by centrifugation and resuspended in MCM at 10^6 cells/ml. The medium was supplemented with 1000 u/ml of GM-CSF and 500 u/ml IL4. After three more days of culture, cells were harvested as mature DCs and characterized by surface protein expression flow cytometry.
as §1, with “an” for “the”, “Indo-1.” for “lndo-1.”, “Probes (Eugene, Oreg.))” for “Probes, Eugene, Oreg.)”, “cells/mi).” for “cells/ml).”, “(10” for “with 10”

human monocytes = experiment: Migration assay (ChemoTx), human monocytes; format: cell-based; details: 90 min, 1-100 nM
Protocol: Migration assays were performed on monocytes and neutrophils. Human monocytes and neutrophils (prepared as in Exampe 2) were harvested and resuspended in chemotaxis medium (CM). The CM consisted of Hank's buffered salt solution (Gibco, Mass.) containing CaCl2 (1 mM) and MgSO4 (1 mM) with added 0.1% BSA (Sigma, St. Louis, Mo.). The assays were performed in 96-well ChemoTx® microplates (Neuroprobe, Mass.). Leukotactin, MlP-1α and chemokines (CKβ8(1-99), CKβ8(25-99), CKβ8-1(1-116) or CKβ8-1(25-116), prepared as in Example 1) were added to the lower wells (final volume 29 μL), and 20 μL of cell suspension (5×10^6 cells/mL for monocytes; 2.5×10^6 cells/mL for neutrophils) added to the polycarbonate filters (5 μm pore size for monocytes; 3 μm pore size for neutrophils). After incubation for 90 min (37° C., 100% humidity, 5% CO2), cells were removed from the upper surface of the filter by scraping. Cells that migrated into the lower chamber were quantified using the Quant cell proliferation assay kit (Molecular Probes, Oreg.).
The chemotactic activity on human monocytes and neutrophils of chemokines: CKβ8(1-99), CKβ8(25-99), CKβ8(1-116) and CKβ8(25-116); W peptides 1 and 2 and the SHAAGtide sequences SEQ ID NO:1 and SEQ ID NO:2 was determined in migration assays. The above peptides were prepared as in previous examples. The migration assays were performed in 96-well CHEMOTX® microplates (Neuroprobe) using the protocol described in Example 5.

Designation and FPRL1 Activity (human FPRL1): high | Notes: activity (human FPRL1): high
Molecule: MLWRRKIGPQMTLSHAAY [SEQ ID NO: 6]
calcium flux (immature Dendritic Cells): partially active

Designation and FPRL1 Activity (human FPRL1): high | Notes: activity (human FPRL1): high
Molecule: MLWRRKIGPQMTLSHAAG [SEQ ID NO: 1]
migration of monocytes (human monocytes): produced migration | calcium flux (immature Dendritic Cells): partially active

More lines, now with the values behind:

B1: CKβ8-1(25-116): novel NH2-terminal truncated form of CKβ8-1, SEQ ID NO: 16, human recombinant chemokine (protein, listed as Homo sapiens)
chain: MLWRRKIGPQMTLSHAAGFHATSADCCISYTPRSIPCSLLESYFETNSECSKPGVIFLTKKGRRFCANPSDKQVQVCMRMLKLDTRIKTRKN
calcium release / mobilization (human FPRL1): stimulated calcium release | calcium release / mobilization (human FPRL1; listed as CKβ8(25-116)): induced calcium mobilization | migration of monocytes (human monocytes): dramatically higher activity than the other three variants at 100 nM and 1 and 10 nM was very similar to the other variants and produced migration | calcium flux (immature Dendritic Cells): induces Ca^2+ release | calcium flux (immature Dendritic Cells; listed as CKβ8-1 (25-116)): partially active

B2: CKβ8-1(1-116): alternatively spliced form of CKβ8, 116 amino acids, human recombinant chemokine (protein, listed as Homo sapiens)
chain: RVTKDAETEFMMSKLPLENPVLLDMLWRRKIGPQMTLSHAAGFHATSADCCISYTPRSIPCSLLESYFETNSECSKPGVIFLTKKGRRFCANPSDKQVQVCMRMLKLDTRIKTRKN
calcium release / mobilization (human FPRL1): no activity | calcium release / mobilization (human FPRL1; listed as CKβ8(1-116)): did not give significant mobilization | migration of monocytes (human monocytes): moderate activity

B3: CKβ8(25-99): known truncated CKβ8 variant, human recombinant chemokine from R&D Systems (protein, listed as Homo sapiens)
chain: RFHATSADCCISYTPRSIPCSLLESYFETNSECSKPGVIFLTKKGRRFCANPSDKQVQVCMRMLKLDTRIKTRKN
migration of monocytes (human monocytes): moderate activity
